Laboratory results: the supplement of paper PMC9170038

Tested on: MS2 coat protein
Experiment: apparent KD of MS2 coat protein; higher = weaker reporter binding
Conditions: Eterna round: R107
In short: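 Designed RNA switches were transcribed on-chip from Illumina sequencing clusters and titrated with SNAP-549-labelled MS2 coat protein in twofold steps from 0.7 or 1.5 nM up to 3 µM. Each step lasted 0.8–1.5 h at first and 10–20 min by the end, in 100 mM Tris-HCl pH 7.5, 80 mM KCl and 4 mM MgCl2, without or with constant ligand. Apparent KD is the median, for each design, of fits to normalised cluster binding curves.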

[1] = input ligand: theophylline 20 uM
[2] = input ligand: theophylline 2 mM
[3] = input ligand: tryptophan 2.4 mM

Sequence | apparent KD of MS2 coat protein (input ligand: arginine 13.2 mM) [nM] | apparent KD of MS2 coat protein (input ligand: none) [nM] | apparent KD of MS2 coat protein [1] [nM] | apparent KD of MS2 coat protein [2] [nM] | apparent KD of MS2 coat protein [3] [nM]
ACCGCAUCCGUAUAGGAUGCGGGCCAUGAAGGAGCGUGGGAAACCACAGGUAGGUCGCAUGGGUUACAUGAGGAUCACCCAUGUG [Jaws] | 26.4 | 166 | 517 | 585 | 534
GCACGACAUGAGGAUCACCCAUGUGCAGAUACCAGUAAUGUAUAUUACCCUUGGCAGCUGAGUAGGUCUGGAGGGCUAUAGGUAA [Same State Theophylline A GF11] | 11.6 | 12.3 | 20.6 | 15.4 | 14.6
UACAUGAGGAUCACCCAUGUAUGAAUGGAUACCAGAUAAAAUAAGGUCCCUUGGCAGCUAGUGAAUCGAGGGUGGGUAUCAUGUU [#14 Exclusion-TheophyllineA] | 10.9 |  | 13.7 |  | 9.89
AGUAGUUGACAAAAGUCAGCUACAACUGAAGGAGCGGGUGGGUGCCCAGGUAGGUCGCAGGAACAUGAGGAUCACCCAUGUAUAA [ArgAS 3 #BothOrNeither #OpenEnded] | 35.9 | 22.7 | 40.3 | 32.2 | 18.5
UUUAUUAUUGACUCGUUAUUGUUUUUGGAUCGAGGACCGGUACGGCCGCCACUCGUGAUAUACAUGAGGAUCACCCAUGUUAGCA [JR_Nu_SSTryptoA_Sub020] | 19.3 |  | 22 | 17.2 | 
GAUCUGUCGGGUGAUACCAGCCUCGGCGCGUCUCGCGCUGAACAUGAGGAUCACCCAUGUGGCCCUUGGCAGCACAUGACAAAUC [Ditere] | 189 |  | 488 |  | 598
CAAUGCGGUUAGGAUACCAGCGACACACACUUCUCACAACACAUGAGGAUCACCCAUGUCCGCCCUUGGCAGCCUUGACUAAGGU [theeternabot_exclusion_MS2_Theo_B_39] | 30.2 |  | 51.8 |  | 27.2
UACAUGAGGAUCACCCAUGUAUGAAUAGAUACCAGCGAAAAUAAGCGCCCUUGGCAGCUAGUGAAUAAAGGGUGGGUAAAAUAAU [Exclusion Theophyline A GF 2] | 8.3 |  | 13.6 |  | 9.41
UGGGUCGGAUGAGGAAAUUGUCCGACGUAUCGAGGACCGGUACGGCCGCCACUCGGUUGUACAUGAGGAUCACCCAUGUCAGGGU [#1 Same State - Tryptophan A Attempt #15 (HarryS)] | 194 | 218 | 269 | 327 | 128
CCAUCUUCAUCGGCCGCCACUGAACCAAGGAGACAUGAGGAUCACCCAUGUAUGGGAAACCAUCAUAGGACCGGGAUGAAGGUGG [doubleHookLine] | 36 |  | 56.1 | 48.1 | 
AAAAUAUAGACGGCCGCCACUAUAAACAUGAGGAACAUGAGGAUCACCCAUGUAUGAGGAUCACCUAGGACCGGGUCAUAUAAAA [AstrosExyTryB#1] | 28.6 | 43 | 55.4 | 41.7 | 40.2
ACAUGAGGAUCACCCAUGUAAAUAACGGAAGGAGCGUGCAAAAGCACAGGUAGGUCGCCGAUAUAAAUAUUGGGUAUUAUAUUUU [AstrosExyArgA#3] | 30.4 | 30.4 | 40.3 | 31.7 | 29.6
AAAAUAAAGGCGGCCGCCACUAGAGUUAGGCAUAUGUACUGGGUAACAUGAGGAUCACCCAUGUAUAGGACCGGGCCAUAAUAAA [Same State - Tryptophan B (Freestyle 1)] | 51.7 | 39.9 | 46.2 | 33.4 | 36.5
ACUCGGCAUCAUGAUACCAGAGAGCCCGAGAUGCCUUAACACAUGAGGAUCACCCAUGUACUCCCUUGGCAGCAUCAUGCACUAU [theeternabot_exclusion_MS2_Theo_B_31] | 16.6 |  | 29 |  | 22.7
UGGGAAGGAGGAAGGAGCGCCAUAAGGGUGACAGUCUGGGUACAUGAGGAUCACCCAUGUAGGCAGGUAGGUCGCCUCGCUCUCA [XArg-B15] | 26.2 | 9.53 | 12.8 | 14.3 | 12.5
UUACAUGAGGAUCACCCAUGUUUACUAUGUCGAGGACCGGUACGGCCGCCACUCGUAUUUGAUGAUUUAGGUGCCACAAGUUAUU [JR_Nu_ExcTryptoA_Sub024] | 16.1 |  | 26.6 | 22.6 | 
AUAACAUGAGGAUCACCCAUGUAUUGGUAACGAGGACCGGUACGGCCGCCACUCGUAUUUUGGUGGUAUUAUAUAUAUAUGAUUA [JR_SSTryptoA_Sub017] | 24.1 |  | 28.9 | 20.6 | 
CCCUGGGUGGGAAGGAGCGCAUAGUGAACAUGAGGAUCACCCAUGUGCAGACGUGAGUCAUUGCAGGUAGGUCGCCCACCCAGGG [SS-ArgB22] | 10.2 | 18.9 | 21.4 | 30.2 | 20.9
AUUUAUGGUCGUGAUACCAGACAUACAUGAGGAUCACCCAUGUGAAAUAACAUAAUUUAGGUCCCUUGGCAGCACUUUUUAAUUA [JR_Nu_SSTheophyB_Sub020] | 43.9 |  | 63.6 |  | 52.4
